# From the supplement of paper PMC9112550, “Optimization of the antimicrobial peptide Bac7 by deep mutational scanning” (BMC Biology, 2022)
# Tested on: Escherichia coli TOP10
# Assay: shrunken log2 fold change of peptide-encoding DNA abundance (4.5 h post-induction vs induction); higher = less antimicrobial activity (less host growth inhibition)
# Conditions: time post-induction: 4.5 h; library: site-saturation at positions 5, 18, 19, 20
# 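Note: peptides expressed intracellularly from a pBAD plasmid library in pooled LB shake-flask culture, induced with 0.3% L-arabinose, DNA abundance read by NGS, three biological replicates, DESeq2 with apeglm shrinkage.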
row,Sequence,shrunken log2 fold change
1,RRIRYRPPRLPRPRPRPMNTPRP,-1.25
2,RRIRTRPPRLPRPRPRPGIEPRP,-0.278
3,RRIRDRPPRLPRPRPRPDYQPRP,0.0708
4,RRIRVRPPRLPRPRPRPWQSPRP,0.0169
5,RRIRPRPPRLPRPRPRPYRSPRP,-0.295
6,RRIRNRPPRLPRPRPRPNHAPRP,-0.0192
7,RRIRGRPPRLPRPRPRPNTTPRP,0.325
8,RRIRDRPPRLPRPRPRPQWVPRP,-0.0468
9,RRIRTRPPRLPRPRPRPLLCPRP,-0.413
10,RRIRPRPPRLPRPRPRPQHRPRP,0.162
11,RRIRMRPPRLPRPRPRPGMAPRP,1.19
12,RRIRPRPPRLPRPRPRPHEKPRP,-0.0384
13,RRIRSRPPRLPRPRPRPGCKPRP,-0.00169
14,RRIRKRPPRLPRPRPRPFVKPRP,-0.00571
15,RRIRSRPPRLPRPRPRPNMHPRP,-0.257
16,RRIRSRPPRLPRPRPRPKDSPRP,0.1
17,RRIRYRPPRLPRPRPRPPSFPRP,0.0588
18,RRIRKRPPRLPRPRPRPGFIPRP,-0.307
19,RRIRIRPPRLPRPRPRPPLDPRP,0.0528
20,RRIRDRPPRLPRPRPRPQHGPRP,0.587
21,RRIRDRPPRLPRPRPRPFFGPRP,1.19
22,RRIRLRPPRLPRPRPRPRIKPRP,-0.168
23,RRIRERPPRLPRPRPRPTRLPRP,0.576
24,RRIRSRPPRLPRPRPRPFWWPRP,0.309
25,RRIRQRPPRLPRPRPRPLPTPRP,0.131

row,Sequence,shrunken log2 fold change
1,RRIRRRPPRLPRPRPRPNANPRP,0.58
2,RRIRWRPPRLPRPRPRPGKNPRP,0.13
3,RRIRMRPPRLPRPRPRPVQLPRP,0.0278
4,RRIRARPPRLPRPRPRPKHPPRP,0.199
5,RRIRIRPPRLPRPRPRPCVHPRP,-1.13
6,RRIRYRPPRLPRPRPRPINTPRP,-0.274
7,RRIRKRPPRLPRPRPRPEWAPRP,0.604
8,RRIRARPPRLPRPRPRPTTYPRP,-0.0877
9,RRIRDRPPRLPRPRPRPARWPRP,0.824
10,RRIRARPPRLPRPRPRPIVMPRP,-0.0831
11,RRIRWRPPRLPRPRPRPGVNPRP,0.0981
12,RRIRYRPPRLPRPRPRPQMYPRP,-0.286
13,RRIRSRPPRLPRPRPRPLNTPRP,-0.563
14,RRIRQRPPRLPRPRPRPDICPRP,-0.0144
15,RRIRCRPPRLPRPRPRPHTPPRP,0.0337
16,RRIRMRPPRLPRPRPRPAPPPRP,1.43
17,RRIRPRPPRLPRPRPRPVPSPRP,0.448
18,RRIRDRPPRLPRPRPRPYRQPRP,0.0922
19,RRIRMRPPRLPRPRPRPATHPRP,-0.0207
20,RRIRFRPPRLPRPRPRPPCQPRP,3.46
21,RRIRSRPPRLPRPRPRPSKLPRP,-0.398
22,RRIRSRPPRLPRPRPRPNMGPRP,-0.351
23,RRIRQRPPRLPRPRPRPRPQPRP,0.262
24,RRIRSRPPRLPRPRPRPFQYPRP,-0.177
25,RRIRERPPRLPRPRPRPKGIPRP,-0.000842

row,Sequence,shrunken log2 fold change
1,RRIRHRPPRLPRPRPRPFWMPRP,-0.0444
2,RRIRFRPPRLPRPRPRPQKGPRP,0.107
3,RRIRIRPPRLPRPRPRPPSPPRP,0.168
4,RRIRFRPPRLPRPRPRPTWMPRP,0.611
5,RRIRLRPPRLPRPRPRPGYTPRP,-0.349
6,RRIRCRPPRLPRPRPRPLHAPRP,0.369
7,RRIRARPPRLPRPRPRPNEFPRP,-0.362
8,RRIRSRPPRLPRPRPRPVRIPRP,-0.239
9,RRIRNRPPRLPRPRPRPKCCPRP,-0.0855
10,RRIRFRPPRLPRPRPRPTLHPRP,-0.0536
11,RRIRVRPPRLPRPRPRPEHMPRP,-0.0512
12,RRIRWRPPRLPRPRPRPKDPPRP,-0.0777
13,RRIRNRPPRLPRPRPRPEYIPRP,-0.0947
14,RRIRRRPPRLPRPRPRPEESPRP,1.5
15,RRIRSRPPRLPRPRPRPSLQPRP,-0.606
16,RRIRKRPPRLPRPRPRPFWMPRP,0.0752
17,RRIRKRPPRLPRPRPRPHAFPRP,0.106
18,RRIRQRPPRLPRPRPRPKEIPRP,-0.223
19,RRIRERPPRLPRPRPRPFREPRP,-0.235
20,RRIRPRPPRLPRPRPRPRVLPRP,-0.0343
21,RRIRERPPRLPRPRPRPRHNPRP,-0.137
22,RRIRTRPPRLPRPRPRPNKYPRP,-0.76
23,RRIRGRPPRLPRPRPRPWLIPRP,-0.192
24,RRIRGRPPRLPRPRPRPEHKPRP,0.464
25,RRIRCRPPRLPRPRPRPEFVPRP,0.105
